Source: paper PMC4960888 (2016)
Ends that are not written are not given here.

Biological target: Aβ(1-42) fibrils 1-42 (Homo sapiens, UniProt P05067)
Assay: SPR

Sequence of Aβ(1-42) fibrils 1-42 (P05067 1-42): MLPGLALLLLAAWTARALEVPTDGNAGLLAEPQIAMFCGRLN

Row | Binder | Kd [µM]
1 | LPFFD [LPFFD peptide] | 317
2 | LPFFD (also: conjugated to AGuIX nanoparticle via PEG, labelled with Cy5.5, attachment sites not given here) [AGuIX@PEG@LPFFD@Cy5.5] | 261
